Reference: PMC6708486 (Nature chemistry, 2019)
“And” between values parts separate entries of the source, which are not always exact repeats. Equal values may be shown once.

Tests used:
AUC = target: the molecule itself; test: AUC
crystal structure = target: the molecule itself; test: crystal structure

Protein	stoichiometry N (AUC)	binding result (crystal structure)
LepI (enzyme) ETVAAIKTLIQQLAQSTDQFGRAEINDALRELQYSLETPFDTVMRMSLDTCQVAVARIGSDLGLFKHLSQCASPQSAEELADHLGCGRELMSRLLRYMASVRMVQQTDDIKYISSNITQTLAVPGLEAGMRHAFENLWPVLMALPDFLAERKYPDIVDAKDTAFQKAFNTDQDCFHWLATQPTRIANFKVLLTDERTPNFLSTFPLEKELGSWSAEPEKALFVDIGGGMGHACIRLREKYPNQPGRVILQDLPPVLQAAQATLPLSGIESMPHNFHTPQPVQGAKFYFLRLILRDFPDHQALEILQNIVPAMDAESRIVIDDGVPPEKGARWAETGTDICIMSALGSKERTQRQWEELAAKAGLQLQALYQYTWPVVNAAMVFSLQ	2 and 4	
LepI (C52A) (enzyme) ETVAAIKTLIQQLAQSTDQFGRAEINDALRELQYSLETPFDTVMRMSLDTAQVAVARIGSDLGLFKHLSQCASPQSAEELADHLGCGRELMSRLLRYMASVRMVQQTDDIKYISSNITQTLAVPGLEAGMRHAFENLWPVLMALPDFLAERKYPDIVDAKDTAFQKAFNTDQDCFHWLATQPTRIANFKVLLTDERTPNFLSTFPLEKELGSWSAEPEKALFVDIGGGMGHACIRLREKYPNQPGRVILQDLPPVLQAAQATLPLSGIESMPHNFHTPQPVQGAKFYFLRLILRDFPDHQALEILQNIVPAMDAESRIVIDDGVPPEKGARWAETGTDICIMSALGSKERTQRQWEELAAKAGLQLQALYQYTWPVVNAAMVFSLQ		binds
